Reference: the supplement of paper PMC10126150
± gives the standard deviation of the averaged measurements.

System: ATP
Experiment: switch fluorescence ratio, 500 uM ATP over buffer (Cy3 cluster intensity, sum of 5 cycles each) (fold (ratio)); higher = stronger signal-on switching upon ATP binding; sequences stand for … in TCGTCGGCAGCGTCAGATGTGTATAAGAGACAGTTTTTTTTTTTTTTTTTTTTTTTTT…TC
Settings: aptamer strand: ATP DNA aptamer (quencher-CACCTGGGGGAGTATTGCGGAGGAAGG + anchor), 100 nM annealed; ATP concentration: 500 uM
In short: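 Between each of five buffer/ATP cycles, the flow-cell was stripped with NaOH and re-annealed. Each cycle imaged Cy3-labelled switching-strand clusters, annealed to 100 nM quencher-labelled ATP aptamer on a modified Illumina MiSeq flow-cell, first in selection buffer and then after 15 min with 500 uM ATP at 22 °C. The fluorescence ratio is summed target-cycle over summed buffer-cycle Cy3 intensity per cluster, averaged per switch-domain sequence, with clusters outside 100-1000 RFU excluded.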
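Also: ATP exposure 15 min at 22 °C before imaging.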

| Sequence | switch fluorescence ratio |
| --- | --- |
| ATGTGTTACC | 1.01 ± 0.021 |
| TACAGCAGTA | 1.1 ± 0.14 |
| AGTGAGCAGC | 1.04 ± 0.039 |
| AGTAATGAAA | 0.975 ± 0.035 |
| TGGGGGTGAA | 1.02 ± 0.018 |
| AACTAACGTG | 1.3 ± 0.056 |
| TATGTGAAGG | 0.995 ± 0.015 |
| TTAGGGTGCA | 1.01 ± 0.025 |
| CTTTCGGGGG | 1.14 ± 0.2 |
| GTCTGGGGGA | 1.03 ± 0.042 |
| CGCATGGAGT | 1.04 ± 0.015 |
| GCACTTGGTC | 0.989 ± 0.011 |
| GGGTGAGGAT | 1 ± 0.046 |
| TCTGGCAGAT | 1.01 ± 0.028 |
| AGGTGCTCTT | 1 ± 0.053 |
| TAGGAAAGAA | 1.03 ± 0.028 |
| TGCGGGATGA | 1.04 ± 0.018 |
| CGGTCTGTGG | 0.995 ± 0.021 |
| ATCCGTGATA | 1.77 ± 0.021 |
| GAGGGGAGCT | 1.01 ± 0.045 |
| AGGCCCGGGC | 0.958 ± 0.023 |
| TTTGGCGCTG | 0.984 ± 0.019 |
| AGTGAATCTG | 0.992 ± 0.085 |
| AGTTGTCAGT | 0.983 ± 0.028 |
| GCGAGTAGG | 1.06 ± 0.056 |
| GCATTTATGG | 0.949 ± 0.022 |

| Sequence | switch fluorescence ratio |
| --- | --- |
| ATAAACCTTA | 1.29 ± 0.28 |
| GACGTAAAAG | 1.097 ± 0.0096 |
| AAGTTCAGTG | 1.014 ± 0.0068 |
| AATAGTTACT | 1.0234 ± 0.00037 |
| GGATTTATGA | 1.002 ± 0.0092 |
| GAAGGGGAAT | 1.003 ± 0.0052 |
| AGGGAAGGGC | 1.032 ± 0.0084 |
| GCCCTTAGCA | 1.018 ± 0.0013 |
| GCGCGCGACT | 1.002 ± 0.0092 |
| TGGGGGGATA | 0.994 ± 0.045 |
| TGACAAAGGG | 0.988 ± 0.024 |
| TTTTTCAGGC | 0.969 ± 0.055 |
| TTTCAGTTGT | 1.01 ± 0.016 |
| GCTAGTTTCG | 1.03 ± 0.019 |
| GGGGGTAAGA | 0.981 ± 0.028 |
| TGACGGATGC | 1.197 ± 0.01 |
| TAGGTGGGGC | 0.996 ± 0.03 |
| TAGGAGTAAG | 1.01 ± 0.03 |
| TTTGTAGGGT | 0.971 ± 0.011 |
| ACTTGATTGT | 1.02 ± 0.094 |
| TTATGTGTGT | 0.996 ± 0.028 |
| CATCGTAATT | 1.07 ± 0.042 |
| CGAGTCTTTG | 1.03 ± 0.059 |
| TACATTCGCG | 1.01 ± 0.035 |
| AAGAAGGATG | 0.982 ± 0.049 |
| TTAGGGGTTT | 0.997 ± 0.041 |

| Sequence | switch fluorescence ratio |
| --- | --- |
| TTTAAGGTTT | 0.998 ± 0.013 |
| GAGGATCAGG | 1.03 ± 0.056 |
| TGTGGGTCAT | 0.9762 ± 0.0021 |
| GAGAGAAAAT | 1.49 ± 0.63 |
| ACTTTGAATA | 0.988 ± 0.013 |
| AGTTTCCTTT | 0.978 ± 0.032 |
| GGGATCTACA | 1.03 ± 0.024 |
| GGTGACTGCT | 0.9543 ± 0.0024 |
| GGGGTTCCGC | 1.05 ± 0.026 |
| GACTACGGCC | 1.049 ± 0.0065 |
| GAAAGGTCGG | 1.21 ± 0.27 |
| CAGGACCCGA | 0.99 ± 0.025 |
| ACCCATGAAG | 0.989 ± 0.015 |
| TCATCGGTTT | 0.977 ± 0.017 |
| AAAAAAAGGG | 1.01 ± 0.047 |
| GTGATTGGCG | 0.971 ± 0.046 |
| TTTTTATTGG | 0.985 ± 0.025 |
| TGTTTTAAGC | 1.03 ± 0.022 |
| ACATTTTTAG | 1.01 ± 0.013 |
| CCGGTCTATT | 1 ± 0.048 |
| TTCAGGGGGG | 1.02 ± 0.033 |
| TTATTTTGTA | 1.03 ± 0.013 |
| AAAAATTCAG | 0.987 ± 0.045 |
| CTAATACTTG | 0.9791 ± 0.0024 |
